Experimental data taken from PMC4912631, “Structure of the exportin Xpo4 in complex with RanGTP and the hypusine-containing translation factor eIF5A” (Nature Communications, 2016).

B1: Xpo4 wild type (natural protein)
chain: not shown
B2: Xpo4 S631A (natural protein)
chain: not shown
B3: Xpo4 D470N (natural protein)
chain: not shown
B4: Xpo4 E537Q (natural protein)
chain: not shown
B5: eIF5A truncated (14 N-terminal residues deleted), hypusinated (domain or fragment)
chain: not shown
modifications: hypusine (N-ɛ-(4-amino-2-hydroxybutyl)-lysine) at 50
B6: eIF5A, full-length, hypusinated (natural protein)
chain: not shown
modifications: hypusine (N-ɛ-(4-amino-2-hydroxybutyl)-lysine) at 50
notes: eIF5A, mammalian; lysine 50 in human numbering carries the hypusine; In the nuclear export assay this protein carried an Alexa568 label; also called eIF5A(Hpu); hypusinated eIF5A; source: E. coli NEB Express, purified; hypusinated in vitro by recombinant deoxyhypusine synthase and deoxyhypusine hydroxylase; eluted from anti-ZZ matrix by bdSENP1; cation exchange; not shown: His14, N-terminal, …

Legend:
Conditions in all cases: both partners purified
ZZ-bdNEDD8-tagged RanGTP = ZZ-bdNEDD8-tagged RanGTP ( (mammalian), UniProt P62826 5-180, Q69L); experiment: pull-down; 1 μM Xpo4 wild type or mutants, 0.75 μM ZZ-bdNEDD8-tagged RanGTP, 1.25 μM hypusinated eIF5A, 100 mM NaCl buffer; retrieved via tagged Ran; eluted by bdNEDP1 protease; SDS-PAGE, Coomassie
[1] = biological target: RanQ69L (aa 5–180), GTP-bound, untagged ( (mammalian), UniProt P62826 5-180, Q69L); experiment: SEC; complexes of Xpo4 variants, RanGTP and a 1.3-molar excess of hypusine-containing eIF5A, retrieved on anti-ZZ beads via tagged RanGTP, eluted by bdSENP1, then Superdex 200 16/60 in 15 mM Tris/HCl pH 7.7, 18 mM NaCl, 2 mM Mg(OAc)2, 2 mM DTT; peak fractions on SDS-PAGE
Xpo4 ΔLoopN&C = biological target: T1, Xpo4 ΔLoopN&C ( (mammalian), UniProt Q9ESJ0 1-1151, Δ241–260 | Δ931–948); experiment: as above
T1 construct: Xpo4 (exportin 4), mammalian, with loops 241-260 and 931-948 deleted; 1,113 residues printed; Crystallised form; 1,052 of 1,113 residues are modelled in PDB 5DLQ; also called ΔLoopN&C Xpo4 variant; Xpo4 loop deletion mutant; source: E. coli Top10 F', purified (Ni(II) chelate, bdSENP1 elution, Superdex 200, Mono Q); selenomethionine form from BL21; not shown: His14, N-terminal, cleaved; bdSUMO, …

Xpo4 wild type [2] = biological target: B1; experiment: as above
Xpo4 wild type [3] = biological target: B1; experiment: pull-down; export complexes formed with Xpo4, eIF5A (full-length or truncated) and ZZ-bdNEDD8-tagged RanGTP; immobilised via tagged Ran; eluted by bdNEDP1 protease; SDS-PAGE, Coomassie

Sequence of Xpo4 wild type (Q9ESJ0 whole entry, the tested form may be a part): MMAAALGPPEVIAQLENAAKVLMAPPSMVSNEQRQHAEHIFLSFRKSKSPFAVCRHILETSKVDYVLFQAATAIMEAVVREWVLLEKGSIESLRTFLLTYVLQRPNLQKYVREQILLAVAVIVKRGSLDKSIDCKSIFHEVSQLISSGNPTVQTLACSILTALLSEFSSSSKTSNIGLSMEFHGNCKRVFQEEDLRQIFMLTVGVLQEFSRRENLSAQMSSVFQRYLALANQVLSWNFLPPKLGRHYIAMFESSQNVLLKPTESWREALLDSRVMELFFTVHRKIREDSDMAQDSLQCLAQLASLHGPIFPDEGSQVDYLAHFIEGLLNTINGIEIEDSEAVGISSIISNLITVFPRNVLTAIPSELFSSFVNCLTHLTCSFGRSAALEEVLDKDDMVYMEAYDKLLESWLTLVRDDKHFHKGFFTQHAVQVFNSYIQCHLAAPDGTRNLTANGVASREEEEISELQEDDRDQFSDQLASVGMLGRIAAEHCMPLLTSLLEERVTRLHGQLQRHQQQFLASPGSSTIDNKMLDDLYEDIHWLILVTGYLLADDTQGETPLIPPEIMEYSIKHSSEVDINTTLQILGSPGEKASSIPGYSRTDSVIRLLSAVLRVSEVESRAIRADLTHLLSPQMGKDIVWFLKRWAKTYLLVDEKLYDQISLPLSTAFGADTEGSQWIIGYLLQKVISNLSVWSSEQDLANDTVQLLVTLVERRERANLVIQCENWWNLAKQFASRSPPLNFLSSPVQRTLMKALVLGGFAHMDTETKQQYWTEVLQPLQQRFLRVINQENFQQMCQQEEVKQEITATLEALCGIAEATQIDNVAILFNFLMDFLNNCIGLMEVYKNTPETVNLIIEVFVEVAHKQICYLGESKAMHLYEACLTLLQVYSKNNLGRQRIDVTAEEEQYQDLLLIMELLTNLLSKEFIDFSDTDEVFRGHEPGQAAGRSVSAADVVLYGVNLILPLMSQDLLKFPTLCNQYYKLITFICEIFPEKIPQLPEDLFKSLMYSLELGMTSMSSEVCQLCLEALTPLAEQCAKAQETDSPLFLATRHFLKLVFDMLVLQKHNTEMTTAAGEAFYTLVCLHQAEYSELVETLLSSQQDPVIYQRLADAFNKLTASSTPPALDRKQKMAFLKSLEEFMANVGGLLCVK
T1 sequence (Q9ESJ0 other isoform, or with tags, fused parts or gaps Δ241–260 | Δ931–948 | Δ241–260 | Δ931–948 | mutant): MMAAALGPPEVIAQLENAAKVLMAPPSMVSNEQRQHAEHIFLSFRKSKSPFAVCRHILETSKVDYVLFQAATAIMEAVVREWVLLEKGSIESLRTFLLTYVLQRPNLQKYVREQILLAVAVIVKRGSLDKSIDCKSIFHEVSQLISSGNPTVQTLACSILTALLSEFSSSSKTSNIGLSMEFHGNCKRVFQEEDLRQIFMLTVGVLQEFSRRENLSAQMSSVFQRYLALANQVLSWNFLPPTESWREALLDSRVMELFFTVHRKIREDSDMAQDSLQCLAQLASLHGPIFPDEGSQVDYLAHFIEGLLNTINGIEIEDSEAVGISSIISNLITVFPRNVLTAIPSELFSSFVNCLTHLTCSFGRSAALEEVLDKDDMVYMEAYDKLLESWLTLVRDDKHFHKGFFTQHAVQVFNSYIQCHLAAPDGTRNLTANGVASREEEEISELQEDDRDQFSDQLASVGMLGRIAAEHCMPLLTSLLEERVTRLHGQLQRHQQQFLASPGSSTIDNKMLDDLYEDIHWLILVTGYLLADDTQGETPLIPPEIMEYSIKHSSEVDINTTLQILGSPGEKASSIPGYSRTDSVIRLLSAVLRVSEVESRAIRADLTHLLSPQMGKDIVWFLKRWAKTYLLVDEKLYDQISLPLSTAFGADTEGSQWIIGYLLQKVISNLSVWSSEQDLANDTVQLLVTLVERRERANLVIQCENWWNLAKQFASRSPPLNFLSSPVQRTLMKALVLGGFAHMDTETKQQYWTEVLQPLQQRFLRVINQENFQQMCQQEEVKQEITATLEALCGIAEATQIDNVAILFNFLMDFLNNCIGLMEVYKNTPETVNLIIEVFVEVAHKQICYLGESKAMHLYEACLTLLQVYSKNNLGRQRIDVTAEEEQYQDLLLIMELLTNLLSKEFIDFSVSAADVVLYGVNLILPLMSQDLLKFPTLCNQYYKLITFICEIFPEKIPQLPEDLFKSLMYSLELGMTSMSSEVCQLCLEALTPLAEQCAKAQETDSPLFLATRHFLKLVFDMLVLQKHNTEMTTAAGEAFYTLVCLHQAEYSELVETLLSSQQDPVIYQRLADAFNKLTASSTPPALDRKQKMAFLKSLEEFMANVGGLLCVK

Row | binding result (ZZ-bdNEDD8-tagged RanGTP) | Binder | further results
1 | binds | B1 | binding result [1]: binds
2 | binds | B2 | 
3 | binds | B3 | 
4 | binds | B4 | 
5 |  | B5 | binding result (Xpo4 ΔLoopN&C): binds; binding result (Xpo4 wild type [2]): binds
6 |  | B6 | binding result (Xpo4 wild type [3]): binds
